Results on two molecules are retold here after publication PMC6955305, “An inhibitor of complement C5 provides structural insights into activation” (Proceedings of the National Academy of Sciences of the …, 2019).

Assay [1] deals with complement C5 (human (endogenous in serum)) (UniProt P01031). Nature of the assay: SPR. For orientation: SPR reads the build-up and loss of mass on a sensor chip optically.
The target of assay [2] is complement C5 (human (endogenous in serum), UniProt P01031 19-673; P01031 678-1676). Nature of the assay: SEC-MALS; 100 uL at 1 mg/mL on S200 10/300 in PBS; C5-OmCI with RaCI and EcuFab, with or without CirpT1 (2-fold molar excess, excess removed by SEC). Conditions: both partners purified. For orientation: Size exclusion chromatography separates by hydrodynamic size, large species first.

As usually defined, the Kd is a measure of binding affinity in units of concentration. Low values mean a tighter complex, high ones a looser complex.

complement C5 (human (endogenous in serum)), sequence (P01031 19-673, chain 1 of 2): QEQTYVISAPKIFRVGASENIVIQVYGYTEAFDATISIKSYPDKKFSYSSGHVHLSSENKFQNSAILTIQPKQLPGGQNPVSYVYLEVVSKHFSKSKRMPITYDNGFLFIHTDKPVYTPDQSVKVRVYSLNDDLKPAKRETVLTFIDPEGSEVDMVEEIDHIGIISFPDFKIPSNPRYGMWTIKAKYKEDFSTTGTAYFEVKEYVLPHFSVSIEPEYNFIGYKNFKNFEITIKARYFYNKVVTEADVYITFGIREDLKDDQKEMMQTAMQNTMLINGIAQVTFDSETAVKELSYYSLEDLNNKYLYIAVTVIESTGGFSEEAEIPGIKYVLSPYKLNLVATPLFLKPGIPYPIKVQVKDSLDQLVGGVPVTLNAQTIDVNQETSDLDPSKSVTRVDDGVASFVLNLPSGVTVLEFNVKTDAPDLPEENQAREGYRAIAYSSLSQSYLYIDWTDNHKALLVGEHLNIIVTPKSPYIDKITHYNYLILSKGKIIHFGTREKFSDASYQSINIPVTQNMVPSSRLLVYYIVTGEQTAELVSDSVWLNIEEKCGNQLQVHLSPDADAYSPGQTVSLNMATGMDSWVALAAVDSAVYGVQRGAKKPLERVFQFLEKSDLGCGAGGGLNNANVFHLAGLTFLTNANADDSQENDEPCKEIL
complement C5 (human (endogenous in serum)), sequence (P01031 678-1676, chain 2 of 2): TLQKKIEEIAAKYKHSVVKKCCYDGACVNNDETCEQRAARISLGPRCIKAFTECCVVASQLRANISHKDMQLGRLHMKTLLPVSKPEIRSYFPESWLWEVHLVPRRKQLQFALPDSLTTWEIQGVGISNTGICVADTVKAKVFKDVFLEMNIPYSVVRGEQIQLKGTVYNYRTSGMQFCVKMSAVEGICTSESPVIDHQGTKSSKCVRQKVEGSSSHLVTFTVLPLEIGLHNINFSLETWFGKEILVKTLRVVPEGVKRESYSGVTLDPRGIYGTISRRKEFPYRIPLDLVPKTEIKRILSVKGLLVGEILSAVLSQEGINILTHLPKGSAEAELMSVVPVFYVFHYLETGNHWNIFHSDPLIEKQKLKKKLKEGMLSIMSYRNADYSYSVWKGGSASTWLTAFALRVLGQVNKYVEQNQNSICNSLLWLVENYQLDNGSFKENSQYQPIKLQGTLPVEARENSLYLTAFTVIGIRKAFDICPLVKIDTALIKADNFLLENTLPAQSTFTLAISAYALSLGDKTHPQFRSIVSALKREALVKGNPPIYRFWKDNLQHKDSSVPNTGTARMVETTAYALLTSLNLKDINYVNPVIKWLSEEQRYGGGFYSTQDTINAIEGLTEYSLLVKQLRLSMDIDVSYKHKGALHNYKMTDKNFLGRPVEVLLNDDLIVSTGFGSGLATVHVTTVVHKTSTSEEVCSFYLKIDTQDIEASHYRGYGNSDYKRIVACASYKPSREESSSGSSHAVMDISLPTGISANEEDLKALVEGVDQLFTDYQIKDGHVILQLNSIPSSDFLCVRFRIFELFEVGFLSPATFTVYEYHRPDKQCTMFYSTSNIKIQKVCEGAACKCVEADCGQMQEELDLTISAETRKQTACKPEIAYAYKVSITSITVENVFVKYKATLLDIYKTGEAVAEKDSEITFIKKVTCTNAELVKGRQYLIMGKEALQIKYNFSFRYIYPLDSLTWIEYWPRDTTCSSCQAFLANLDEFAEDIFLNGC
complement C5, sequence (P01031 19-673, chain 1 of 2): as the sequence (P01031 19-673, chain 1 of 2) above
complement C5, sequence (P01031 678-1676, chain 2 of 2): as the sequence (P01031 678-1676, chain 2 of 2) above

Molecule “CirpT1 (complement inhibitor from Rhipicephalus pulchellus of the terminal pathway, family member 1) (natural protein)” came in with a Kd in assay [1] of 10 nM.

B1: OmCI (natural protein)
chain: DSESDCTGSEPVDAFQAFSEGKEAYVLVRSTDPKARDCLKGEPAGEKQDNTLPVMMTFKNGTDWASTDWTFTLDGAKVTATLGNLTQNREVVYDSQSHHCHVDKVEKEVPDYEMWMLDAGGLEVEVECCRQKLEELASGRNQMYPHLKDC
notes: also called Coversin
Take B1: the binding result in assay [2] is “binds”.
